Consider 30 sequences from a protein production outcome set (Wang et al. 2014).

A short description of this data set: label from the status in PepcDB records.
Regarding “GSSGSSGMKQATRKPTTPGDILLYEYLEPLDLKINELAELLHVHRNSVSALINNNRKLTTEMAFRLAKVFDTTVDFWLNLQAAVDLWEVENNMRTQEELGRIETVAEYLARREERAKKVA”, the protein production entry is “not failed”. The value for “GSSGSSGPSSPSIDQVEPYSSTAQVQFDEPEATGGVPILKYKAEWRAVGEEVWHSKWYDAKEASMEGIVTIVGLKPETTYAVRLAALNGKGLGEISAASEFKTQPVREPSAPKLEGSGPSSG” was “not failed”; that for “GSSGSSGWVAFDKQVLSFDAYLEEEVLDKSQTNYRIRYYKIYFYPEDDTIQVNEPEVKNSGLLQGTSIRRHRITLPPPDEDQFYTVYHFNVGTEVVFYGRTFKIYDCDAFTRNFLRKIGVKVNPPVQSGPSSG” was “not failed”; that for “GTAYWKNPDQFTAFNTGLHALLREKSYNFFLLGEPRADIYGDNPIGGEASQGMERLPFNTINKENVGISNYGDMYKIINQINQMIAKTTETTILTEATQNYYLGEAYGMRAYLYFHLLRSWGDVVLYLDYTEGQNLDLSNITKGVSPATEVMEQIKKDIQASENAFGSDYSFKLGRHFWSAAATQMLKGEAYLWSGRQMNGGNSDYTIAKNAFENVKKADVGLVTSSFKDIFSFENKKNKEMIFTIHNGKDEYEMWGGYYRMRLIPAQDKMVKIYCDENGNSFVGTPDAQLNGLTQLQVRREFYFKGFRNNDTRWTTSLKAVYKKDAQGVVSYFGPITYKFQGTMLEGGSTRSFLDDFPIYRYADCLLQLAMAKVLLGEDPTEEINAVRERAYGSKYFNEHKAEIAYPNDNDPEFYTDNKWMKPDNAGALEAILKERLREFMFEGKRWYDIRLLGWDYVHQYSSAEQSRLLWPIDAGTLTNNSALKQTPGYE” was “not failed”. The value for “GTPVSDAEEIKVKYGCALSELVSKDDTVNVPSVGGRPSRSLQRQTLSEVIEPRYSELMGLVNQTIDSVQAKLREEGIKHH” was “failed”. With “GTQAGVPAWSTIKVPISIAALRANPGNDVLMRQAITVSDNDAARALWDSLGSPREKVGAVLAQGGDPQTQVNDQPGMRTFC” the entry was “failed”; with “GVLDDIRFGVRRTLNARIASQAQWYALGAEQLARTRIAQLMDREPNKTTLEGGWNGRVISFPIEQGRMEAKLTDATGCFNLNSVVEANQGEPFRRRELGVRQFTTLLSLVGVSNGPELAENLADWMDSNDVGRAEAEDPGYAQLAQPYRTAGGPLAEVSELRAIRGFTPSVYAALRPYVCALPTTDLSPINVNTLPPERALLLTALTEGRIGRETAARVLSGRPVNGWPDAQAFWGQQALVATPPGDVVRDQIKFRTRFFALDSQIVFADMPVFMTALFETPSASKVILA”, “failed”; with “GVSVSPDETMLAFGEDVLSRRVYNIYFKDIESGAMITDVLENTEGRIVWGNDNRHVFYIAKDLQTLLGNRVYRHELGTPQSRDVLVYEEQDDAYYISLGKSLDESQIVLFHESTTTSEVSVLDANDPLSLFKPVLAREEGHEYSVSKLGDSYYVLTNWQATNFRLMKVAIKDAADKSKWQEVVAHNPNARLEDELVLKDYLIIQTRENGLTRIKVMPFNGQKPFELSFDEPAYVLGLDVNA”, “failed”. For the sequence “HALAERDRPLPTHLVLSGRMPPHTGYSPLLGAMDDNQLWQHVCSESLLPLPTDASCSFARHALGKLKADLALNAQLTYRFIRPLPVPLYVLNGQDDPLLELHRLDEWQRYTSTSFHSEYVPGGHFFFNINFQLLYLPLLTALD”, the protein production entry is “failed”.

For the sequence “HALGAPVLRVEGLSQAGHFRNVSFEVRAGEVLGITGLLGSGVKELVECLFGLEQPDAGSVTIDGEVRRFANPGRAVQGRVALVPEDRRAHGVATDMSVRDNITIASLERYMTRGFVSRARENEAVDGFIRELSIKTPHRDQLVRNLSGGNQQKVALAKWLSCQSRVYVLDEPTVAVDVGAKVEIYTLLNRLAAEGAAILFLSSDLLEIAGFCDRALVVYRGTLNGEFAGETLDSDLLLAAASGARAQRKEA”, the protein production result is reported as “failed”. The value for “HARKSLTVLVVGESARAENFGILGYGRNTTPNLNKENGLVAFTDVYSCGTETAVSVPCMFSNMGRKNYNATKARNQEGLLDVLKHAGIEVAWRDNQSGCKGTCDRVTFQDVSNLTDPLLCNSHECRDEILLQNLQGFIDSLDKDTVLVLHQMGSHGPEYYKRYPKEFEKFTPVCESNALNNCSRDSIVNAYDNTLLYTDHVLSTLIDLLRSNQAKVDTAMVYLSDHGESLGEYNLFLHGTPYVLAPDQQKHVPMLIWLSDTYQKSFAVTPDCLAKQRNAPLSQDNLFHSMLGLLKVDTKVY” was “failed”; that for “HEETECPLRLAVCQHCDLELSILKLKEHEDYCGARTELCGNCGRNVLVKDLKTHPEVCGREG” was “not failed”; that for “HIQKGIAGEQKACAFLEQQGYKIIEKNLRIGKGEIDLIAVHNNCMCFIEVKYRKHNRYGFPEEFVTQKKLLKIQETAEAYIYTVNWQGRIRFDVVAITGEELPVHL” was “failed”. As to “HKPWRAEYAKSSRSSCKTCKSVINKENFRLGKLVQSTHFDGIMPMWNHASCILKKTKQIKSVDDVEGIESLRWEDQQKIRKYVESGAGSNTSTSTGTSTSS”, the protein production result is “not failed”. The value for “HLDASLQEVAEHAFGDYLGGLVALDPNTGGVLALVSKPGFDPNLFVDGIDPETWKSLNESPERPMVNRALRGIYPPGSTIKPLMALAGLELGLREPDDSIDDPGFFRLPNSQHRFRDWKPGGHGIVDLRRSISQSCDIYYYRLAVDMGIDRMHDYLTQFGLGQKTGIDLQGESSGLLPSRAWKQRRWKQPWYPGETVIAGIGQGYHLTTPLQLATMTAMLANGGKRIQPRLVDAVRDPHTRAWQTQAPVMLGEVAIDPENLAVVRQGMMDVTRPGGTAAASAAGAAYGIAGKTGTAQVVGIKQGARYDATRLAREHRDHALFVAYAPAENPVIAVAVMVENGGSGSGTAAPIARAVFDYYLTGKRPGTMKLETDDAAD” was “failed”; that for “HPNVTFIIGENGTGKSTLLEGIAIALGFNAEGGTKNFRFSTNDSHSSLHEYLRISKSFNTPSDGFFLRAESFYNVASYIDEIDADLEARGNPVIDSYGGISLHEQSHGESFFSLFMNRFSGQGLYILDEPEAALSPMRQLSMLIRMHELAEQGSQFVIATHSPILMAYPESTIYSLTQEG” was “failed”. The value for “HRAKIRMEALPEDYERVPGTDMTPEQAYNVSNLDPALQKALDDLSPDFRVAVVLCDVVGMSYDEIADTLGVKMGTVRSRIHRGRSQLRAHLENQATSDEGAQLLLATGR” was “failed”; that for “HSHSDKHPVTWQPSKDGDRLIGRILLNKRLKDGSVPRDSGAMLGLKVVGGKMTESGRLCAFITKVKKGSLADTVGHLRPGDEVLEWNGRLLQGATFEEVYNIILESKPEPQVELVVSR” was “not failed”; that for “HVSDLDWLMSGLVQRVPHTTSAVLLSCDGLVKSVHGLDPDSADHMAALASGLYSLGRSAGIRFGDGGDVRQVVVELDSTLLFVSTAGSGTCLAVLAGREADAAVLGYEMAMLVKSVRPYLMTAPRQ” was “not failed”. The value for “HYSPFRSQPVDCVLWVKQELVAPNDYNPNNVAPPEKRLLQTSLEADGFTQPVVVIQQRPQAYTIVDGFHRHELACSKAALKKTLKGYLPVTCLTSEAASRDGLMAATIRHNRARGRHQ” was “failed”. For the sequence “IDTVAPDMRIHGFLNAQEFTLYLDTSGEALFKRGLRQTQGEAPLRENLAAGILALTGWQPGTPLLDPMCGSGTLLLEAAQIACRIAPGSGRQFAFEQLKLFDARSWKKLKQTATERQHERTFQSIYGSDLYGSALAHTRNNLAAAGLAECVTLKQANVLEISAPAETGILVSNPPYGVRIGDHQMLAEFYPRLGDVLKQRFSGWRAFLLTADPLLAKSIRLTPSRRTPLFNGALECRLLEYRLVAGSMRREKQPSSESSTNQPIT”, the protein production result was “failed”. Take “IEVKQLEFPAFKVEIQKWLHFHINWQNDMDYIEKTNHTFYGAYVDNDLKGSICINEQGKISFIFIDKEYRNRGIGSKLLQVARDELNLESLLISFPNNSLLEGFLKKTGFEKNSLAQYEMYVLL”: the protein production entry was “failed”. The value for “IHNSRWIMTPEVKEDCKMRLFCLPFAGGGALAYRSWCRYMPPEIELCAVQLPGRENRIKDEKFYDINLLIDELVLQILPYLDKPFALYGHSMGGLISFELARRIRKVKGLTPKILFFSGSKAPQLYDHTKDISHLPDELFLKAIKSFNGMPDMFWQDRELIEFKLPTLRADFSVLEGYNYYNEEPLECPISALCGENDKIISKKDMEALALQTKNQFKLRMFDGDHFFINTCRSKVLKSIIEDLN” was “not failed”; that for “IIGNAEAICLPELGITHLEARIDTGAQTSSLHVDNIDCFEKDGQSYVAFDLHPDVYHLEQVVRCTAKLKANRKVKSSNGTFEHRCVITTMLRLGDQEWPIDITLTNREKMTYMMLLGRQGMADKVLVDPSQSH” was “failed”.

As to “IKHKQLIEQVMIYIEKHLAENITLQDIADELYISRNYLGQIFKKVVGESFKNYVTRLRMEKAKKMIQEGNFLIYEVSEKVGYVNPAYFTTMFKKYTGYTPRDLIQK”, the protein production result is reported as “failed”. With “ILHRDADFLLRALQPDDFVRTSRYENANREHLAPWEPLRDPGYFSVDNARARTLLQVASMDEGEALLLLLLDPDDGEVLGRCSYTNIVRGVFQACHLGFSLAAAAQGRGLMARALRVANRYCFEQLGLHRIMASHLPRNARSERLLESLGFEKEGYARAYLKIAGVWEDHVLR” the entry was “failed”; with “ISLAVLAVSIIFLGVTVIQNKKKIDPALKELSSVTQAMQKQIEGLKTETELLTQKQKKIQQDVQIKKYTLQQTAAEVKEVPQAVKEVWQA”, “not failed”; with “ISMIGERTNSNGSKAFREAMLSGDWEKCVDIAKQQTRDGAHMLDLCVDYVGRDGTADMATLAALLATSSTLPIMIDSTEPEVIRTGLEHLGGRSIVNSVNFEDGDGPESRYQRIMKLVKQHGAAVVALTIDEEGQARTAEHKVRIAKRLIDDITGSYGLDIKDIVVDCLTFPISTGQEETRRDGIETIEAIRELKKLYPEIHTTLGLSNISFGLNPAARQVLNSVFLNECIEAGLDSAIAHSSKILPMNRIDDRQREVALDMVYDRRTEDYDPLQEFMQL”, “failed”. Regarding “ITARRRGELRRDALLKMGDQLRSLTTIQDMTGIASEIVGRALGAVRAGFGRVDPGEESVIIENDWSAAGYASLAGWHSLSDHPSFETANATKQPVVVADVAAAPPDNLSSQAKDDPGIGSLAVIPIENHDGSTALFFVHVAEPRDWSDDDLAFLRNVGDRLAAGVGRLDAEALQHTLNLELSHRMKNTLAMVMAIARQTLRSIP”, the protein production entry is on record as “failed”.

As to “ITIRDDILFQSGSAELTAGKREIAKEIGELFAQGKGTMEGIVSGHTDNVPISTSIYSSNWELSVARAVNFMEAIIQENSEVNPGEFSARGYGEFRPVAKNDIAANREKNRRVEIMVRPINRDTLDEDE”, the protein production entry is on record as “failed”.
